# Test results: the nanobody polyreactivity screen of Harvey et al. (2022)
# Assay: yeast display, Sf9 membrane polyspecificity reagent, FACS + sequencing; frameworks hold sequencing errors
# Summary of the method: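 Galactose induction of a Saccharomyces cerevisiae BJ5465 synthetic nanobody display library ran 36–48 hours. The cells were then stained for 1 hour at 4 °C with 10% biotinylated, detergent-solubilized Sf9 membrane reagent, pulled down on streptavidin microbeads and FACS-sorted into low and high (top ~1%) gates on expression and reagent-binding fluorescence. Labels for polyreactivity follow the gate of origin.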
row,Sequence,polyreactivity (PSR sort gate)
1,QVQLVESGGGLVQAGGSLRLSCAASGFIFLLNAMGWYRQAPGKERELVAAISWGGGSTYYADSVKGRFTISRDNAKNTVYLQMNSLKPEDTAVYYCAAKPGKTPLTGHRGPYDTGYGYWGQGTQVTVSS,low polyreactivity
2,QVQLVESGGGLVQAGGSIRLSCAASGFTFRSYTMGWYRQAPGKESELVAAITSRGTSTYYADSVKGRFTIPRDNAKNAVYLQMNSLKPEDTAVYYCNADGTRYAGDDYWGQGTQVTVSS,high polyreactivity
3,QVQLVESGGGLVQAGGSLRLSCAASGRIFFRYVMGWYRQAPGKERELVAAIDRGGTTNYADSVKGRFTISRDNAKNTVYLQMNSLKPEDTAVYYCAVRYFPYRDYYWGQGTQVTVSS,high polyreactivity
4,QVQLVESGGGLVQAGGSLRLSCAASGYTFQSYAMAWYRQAPWKERELVAAIRYSGGSTYADSVKGRFTISRDNAKNTVYLQMNSLKPEDTAVYYCAARSNSLLFDYWGQGTQVTVSS,low polyreactivity
5,QVQLVESVGGLVQAGGSLRLSCAASGSIFSWYAMGWYRQAPGNARELVAAIRRGGSTYYADSVKGRFTISRDNATNTVYLQMNSLKPEDTAVYYCADRVYTAASRGRGDYWGQGTQVTVSS,low polyreactivity
6,QVQLVESGGGLVQAGGSLRLSCAASGITFWAYAMGWYRPAPGKARELVAAITSGGSTNYADSVKGRFTISRDNAKNTVYLQLNSLKPEDTAVYYCAADWAYYSTALDYWGQGTQVTVSS,low polyreactivity
7,QVQLVESGGRLVQAGGSLRLSCAASGSIFYGYTMGWYRQAPGKERELVATISGRGGSTYYADSVKGRFTISRDNAKTTVYLQMNSLKPEDTAVYYCNSGKYYYNYGFWGQGTQVTVSS,high polyreactivity
8,QVQLVESVRGLFQAGGSLRLSCAASGFTFYIYDMGWYRQAPGTERELVAAITWSGGRTYYADSVKGRFTISRDNAKNTVYFQMNSLKPEDTAVYYCAASYPGLSFHKYEYWGQGTQLTVSS,high polyreactivity
9,QVQLVESGGGLVQAGGSLRLSCAASGRTFATNAMGWYRQAPGKERELVAAITSRGGSTYYADSVKGRFTISRDNAKNTVYLQMNSLKPEDTAVYYCAAETSPSWYTWVTYDYWGQGTQVTVSS,high polyreactivity
10,QVQLVESGGGLVQAGGRLRLSCAASGLTLQRYTKGWYRQAPGTERELVAAISRSGGGTYYADSVKGRFTISRDNAKNTVYLEMNSLKPEDTAVYYCAAGWYVYRPSRGYGYWGQGTQVTVSS,high polyreactivity
11,QVQLVESRGGLVQAGGSLRLSCAASGSIFGANAMGWYRQEPGKEMELVAAISTRGGRTYYADSVKGRFTISRDNAKNTVYLQMISLKPEDTAVYYCATSGGRPYTYEYWGQGTQVTVSS,high polyreactivity
12,QVQLVESGGGLVQAGGSLRLSCAPSGRTFYIYAMGWSRQAPGKERELVAAITRSGGSTYYADSVKGRFTISRDNAKNTVYLQMNSLKPEDTAVYYCNARRWITSDYWGQGTQVTVSS,high polyreactivity
13,QVQLVESGGGLVQAGVSLRLSCAASGRTFGYYTMGWSRQAPGKERELVAGISSAGSTNYADSVKGRFTISRDNAKNTVYFQMNSLKPADTAVYDCAARTYKVIQNNSWETYYYWGQGTQVTVSS,high polyreactivity
14,QVQLVESGRGLVQAGGSLRLSCAASGSISGGNAMGWYRQAPRKARELVAANDYTDDSTYYADSVKGRFTISRDNAKNTVYLQMNSQKPEDTAVYYCAADAYRAQGDYWGQGTQVTVSS,low polyreactivity
15,QVQLVESGGGLVQAGGSLRLSCAASGSIQARYAMGWYRQAPGKERELVASITTSGDSTYYADSVKGRFTISRDNAKNTVYLQMNSLKPEDTAVSYCARRRWGWGYQHFPYYYWGQGTQVTVSS,high polyreactivity
16,QVQLVESGGGLVQAGGSLRLSCAASGRIFYLYTMGWYRQAPGKERELVAAITWSGGRTFYADSVKGRFTISRDNAKNTVYLQMNSLKPEDTAVYYCAARAYDSVGKYYYWGQGTQVTVSS,high polyreactivity
17,QVQLVESGGGLVQAGGSLRLSCAASGSTFYTYAMGWYRQAPGKERELVARIRWSVGSTYYADSVKGRFTISRDNAKNTVYLQMNSLKPEDTAVYYCAADYYKRYKYLYDYWGQGTQVTVSS,high polyreactivity
18,QVQLVESGGGLVQAGGSLRLSCAASGRTFYGYVMGWYRQAPGKERELVAAISSGGNTKYADSVKGRFTISRDNAKNTVYLQMNSLKPEDTAVYYCAAGSSVTPYRYYYWGQGTQVTVSS,high polyreactivity
19,QVQLVESGGGLVQAGGSLRLSCAASGITFYKYVMGWYRQAPGKERELVAAITYSGGSTYYADSVKGRFTISRDYAKNTVYLQMYSLKPEDTAVYYCAKRRPALRWIYYYWGQGTQVTVSS,high polyreactivity
20,QVQLVESGGGLVQAGGSLRLSCAASGITFDQYVMGWYRQAPGKERELVAAIDRSDGITYYADSVKGRFTISRDNAKNSVYLQMNSLTPEDTAVYYCAAVTYTPVYGGYYWDGGYWGQGTQVTVSS,low polyreactivity
21,QVQLVESGGGLVQAGGRLRLSCAASGSIFFYYAMGWYRQAPGKERELVADITSGGTTYYADSVKGRFTISRDNAKNTVSLQMNSLIPEDTAVYYCNAGLYPGQRPDYTNYSSDYWGQGTQVTVSS,low polyreactivity
22,QVQLVESGGGLVQAGGSLRLSCAASGITLFGYAMGWYRQAPGKERELVAVITSDGGRTYYADSVKGRFTISRDNAKNTVYLQMNSLKPEDTAVYYCAARAYDRTSGYYYWGQGTQVTVSS,low polyreactivity

row,Sequence,polyreactivity (PSR sort gate)
1,QVQLVESGGGLVQAGGSLRLSCAASGYIFKNYAMGWYRQAPGKERELVAAITRRGASTYYADSVKGRFTITRDNAKNTVYLQMNSLKPEDTAVYYCAAYPWPPGEYDYWGQGTQVTVSS,low polyreactivity
2,QGQIVESGGGLVQAGGSLRLSCAASGFTFRRYAMGWYRQAPGKEREVVAGITSSGGSTYYADSVKGRFTSSRDKAKNPVYLQMNSLKPEDTAVYYCAAEWVYTSFDYWGQGTQVSVSS,high polyreactivity
3,QVQLVESGGGLVQAGGSLRLSCAASGSISGYYAMGWYRQAPGKERELVASIRYTGARTYYADSVMGRFTISRDTAKNNVYLQMNSLKPEDTAVYYCAADVKRDRVWGGDYWGQGTQVTVSS,low polyreactivity
4,QVQLVESGGGLVQAGGSLRLSCAASGSTFRANTMGWYRQAPGKERELVAAITSGGSTYYADSVKGRFTISRDNAKNTVYLQMNSLKPEDTAVYYCAADYTGDWADGPHSLREYDYWGQGTQVTVSS,low polyreactivity
5,QVQLVESGGGLVQAGGSLRLSCAASGYTFDKYAMGWYRQAPGKERELVAAISSGGRTYYADSVKGRFTISRDNAKKTVYLQMNSLKPEDTAVYYCAKGSAGRGMDSWGQGTQVTVSS,low polyreactivity
6,QVQLVESGGGLVQAGGSLRLSCAASGFTLARYAMGWYRQAPGKEREFVAAITNGGRTNYADSVKGRFTISRDNAKNTVYLQMNSLKPEDTAVYYCAARYRFGGIRRYNYWGQGTQVTVSS,high polyreactivity
7,QVQLVESGGGLVQAGGSLRLSCAASGRIFGRNAMGWYRPAPGKERELVADISYRGGRPYYADSVKGRFTISRDNAKNTVYLQMNSLKPEDTAVYYCNAGVYRSGGRKYDYWGQGTQVTVSS,high polyreactivity
8,QDQLVESGGGIVQAGGSLRLSCAASGRTFVAYAMGLYRQAPGKEREFVARISSGGSTYYADSVKGRFTISRDNAKNTVYLQMNSLKPEDTAVYYCAADRGPYFVPWRRYDYWGQGTQVTVSS,low polyreactivity
9,QVQLVESGGGLVQAGGSLRLSCAASGRTFRWYTLGWYRQAPGKERELVAAITSRGGSTYADSVKGRFTISRDNAKNTVYLQMNSLKPEDTAVYYCNAARTYQYDYWGQGTQVTVSS,high polyreactivity
10,QVQLVESGGGLVQAGGSLRLSCAASGSNAMGCYRPAPGKDSELVAVITSRGGSTYYADSVKGRFTISRDNAKNTVYLQMNSLKPEDTAVYYCAKAWYVRGTWSVHVRYGYWGQGTQVTVSS,high polyreactivity
11,QVQLVDSGGGLVQAGGSRRLSCADSGSIFGDYDMGWYRQAHGKERELVATIRYSGGTTYYADSVKGRFTISRDNAKNTVYLQLISLKPEDTAVYYCNARVWLFWTSELDSWGQGTQVTVSS,low polyreactivity
12,QVQLVESGGGLVQAGGSLRLSCAASGSNFYNNVMGWYRQAPGKERELVAAINSGGRTYYADSVKGRFTISRDNAKNTVYLQMNSLKPEDTAVYYCAVGYGRAARMDYWGQGTQVTVSS,high polyreactivity
13,QVQLVESGGGLVQAGGSLRLSCAASGLTFRRYAMGWYRQAPGKVRELVAGISRGGSTYYADSVKGRFTISRDNAKNTVYLQMNSLKPEDTAVYYCAAYNRGTYPVQPVPYDMDYWGQGTQVTVSS,low polyreactivity
14,QVQLVESGGGLVQAGGSLRLSCAASGSIFVQYAMGWYRQAPGKERELVAGITISGGRTYYADSVKGRFTISRDNAKNTVYLLMNSLKPEDTAVYYSNADVTRASSRYNSWGHGTQVTVSS,low polyreactivity
15,QVQLVESGGGLVQAGGSLRLSCAASGSTFAPNAMGWYRQAPGKERELVAAISSGSSTYYADSVKGRFTISRDNAKNTVYLQMNSLKQEVNAVYYCAARSTYYSRKQLVDYWGQGTQVTVSS,high polyreactivity
16,QVQLVESGGGLVQAGGSLRLSCAASGLIFSYNDMGWYRQAPGKERELVASISNGGSTNYADSVKGRFTISRDNAKNTVYLQMNSLKPEDTAVYYCAAEGALGEVYWWNVRRYYWGQGTQVTVSS,low polyreactivity
17,QVQLVESGGGLVQAGGSLGLSCAASGRTFDDYSMGWYRQAPGKEMEFVAGITDNGGGTNYADSVKGRFTISRDNAMNTVYLQMNSLKPEDTAVYYCNAASDDFFPGRSTYGRDYWGQGTQVTVSS,low polyreactivity
18,QVQLVESGGGLVQAGGSLRLSCAASGSTLGRNAMGWYRQAPGKERELVAGIDGSAGSTYYADSVKGRFTISRDNAKNSVYLQMNSLKPEDTAVYYCNADVIDLDYDYWGQGTQVTVSS,low polyreactivity
19,QVQLVESGGGLVQAGGSLRLSCAASGSTFFYYAMGWYRQAPGKERELVAAISGGGGDTTYADSVKGRFTISRDNAKNTVYLQMNSLKPEDTAVYYCAAVPGSFGSGIFDYWGQGTQATVSS,low polyreactivity
20,QVQLVESGGGLVQAGGSLRLSCAASGRTFAYYAMGWYIPGPGKERELVAAISSGGSTYYADCVKGRFTISRDNAKNTVYLQMNSLIPEDTAVYYCATRDKQYYYWGQGTQVTVSS,high polyreactivity
21,QVHLVESGGGLVQAGGSLRLSCAASGSTFGSNAMGWYRQAPGKERELVAAIRGIVGSKYYADSVKGRFTISRDNAKNTVYLLMNSLKPEDTAVYYCAADIDFERDRYVYWGQGTQVTVSS,low polyreactivity
